Measurements as given in publication PMC9482650, “Quantitative fragmentomics allow affinity mapping of interactomes” (Nature Communications, 2022).

T1: APBA1_1, Q02410
T1 sequence (Q02410 651-752, limits assumed, looked up): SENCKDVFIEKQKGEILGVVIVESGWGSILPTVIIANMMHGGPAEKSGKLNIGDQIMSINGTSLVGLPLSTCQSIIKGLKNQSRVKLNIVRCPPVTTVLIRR

T2: MPP2, Q14168
T2 sequence (Q14168 180-250, limits assumed, looked up): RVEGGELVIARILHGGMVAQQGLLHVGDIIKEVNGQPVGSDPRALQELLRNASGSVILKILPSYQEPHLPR

T3: GRIP1_3, Q9Y3R0
T3 sequence (Q9Y3R0 247-346, limits assumed, looked up): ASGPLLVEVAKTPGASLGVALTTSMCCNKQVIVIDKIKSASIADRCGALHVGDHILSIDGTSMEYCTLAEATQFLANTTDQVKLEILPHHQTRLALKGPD

T4: DLG3_2, Q92796
T4 sequence (Q92796 221-321, limits assumed, looked up): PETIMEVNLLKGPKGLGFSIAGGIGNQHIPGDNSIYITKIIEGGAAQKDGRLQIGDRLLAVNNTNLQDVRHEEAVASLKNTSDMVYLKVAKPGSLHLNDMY

T5: GRIP1_5, Q9Y3R0
T5 sequence (Q9Y3R0 568-668, limits assumed, looked up): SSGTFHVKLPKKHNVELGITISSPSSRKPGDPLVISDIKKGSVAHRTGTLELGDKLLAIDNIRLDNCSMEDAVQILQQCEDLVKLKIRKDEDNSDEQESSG

T6: RHPN1, Q8TCX5
T6 sequence (Q8TCX5 508-602, limits assumed, looked up): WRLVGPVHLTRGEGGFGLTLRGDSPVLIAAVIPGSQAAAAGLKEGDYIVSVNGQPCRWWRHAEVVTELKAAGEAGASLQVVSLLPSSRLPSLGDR

T7: LNX2_2, Q8N448
T7 sequence (Q8N448 334-432, limits assumed, looked up): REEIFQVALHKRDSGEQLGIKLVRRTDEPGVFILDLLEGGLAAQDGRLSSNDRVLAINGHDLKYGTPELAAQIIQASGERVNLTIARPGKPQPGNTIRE

T8: NHERF3_1, Q5T2W1
T8 sequence (Q5T2W1 4-100, limits assumed, looked up): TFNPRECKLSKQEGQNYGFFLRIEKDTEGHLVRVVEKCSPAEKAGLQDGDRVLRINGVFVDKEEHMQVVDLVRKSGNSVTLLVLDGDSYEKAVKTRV

T9: APBA2_1, Q99767
T9 sequence (Q99767 563-664, limits assumed, looked up): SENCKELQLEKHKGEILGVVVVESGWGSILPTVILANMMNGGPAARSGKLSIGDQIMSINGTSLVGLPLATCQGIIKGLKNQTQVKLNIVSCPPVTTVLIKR

T10: SYNJ2BP, P57105
T10 sequence (P57105 8-110, limits assumed, looked up): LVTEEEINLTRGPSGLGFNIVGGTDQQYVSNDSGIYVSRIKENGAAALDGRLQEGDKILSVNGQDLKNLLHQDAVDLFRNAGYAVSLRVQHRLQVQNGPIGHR

T11: APBA1_2, Q02410
T11 sequence (Q02410 742-832, limits assumed, looked up): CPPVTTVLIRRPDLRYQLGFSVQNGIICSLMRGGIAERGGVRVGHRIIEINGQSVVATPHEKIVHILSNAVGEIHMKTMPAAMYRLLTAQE

T12: NHERF3_3, Q5T2W1
T12 sequence (Q5T2W1 238-333, limits assumed, looked up): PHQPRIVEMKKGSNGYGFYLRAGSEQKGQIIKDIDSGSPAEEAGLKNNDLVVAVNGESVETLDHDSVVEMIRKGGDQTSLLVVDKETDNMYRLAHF

B1: PALLS, Q8WX93;Q8WX93-1 (peptide)
chain: NTALVESEDL
B2: HNRNPK, P61978;P61978-2 (peptide)
chain: VKQYADVEGF

The binders below were run against T1, APBA1_1, Q02410 (assay: holdup assay). Details: plain residues with an end cap or a label only (N-terminal biotin on a linker: ado-ado).
Set-up: key: below the threshold = too weak to quantify, mostly under pKd 3.1 to 4

Binder | pKd
B1 | below the threshold
B2 | below the threshold

The binders below were run against IL16_3, Q14005 (assay: holdup assay). Details: plain residues with an end cap or a label only (N-terminal biotin on a linker: ado-ado).
Set-up: key: below the threshold = too weak to quantify, mostly under pKd 3.1 to 4

Chain of IL16_3, Q14005 (Q14005 1107-1207): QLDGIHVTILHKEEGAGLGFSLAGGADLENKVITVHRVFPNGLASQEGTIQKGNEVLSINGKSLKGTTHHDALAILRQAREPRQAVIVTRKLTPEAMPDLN

Binder | pKd
B1 | below the threshold
B2 | below the threshold

The binders below were run against DLG2_3, Q15700 (assay: holdup assay). Details: plain residues with an end cap or a label only (N-terminal biotin on a linker: ado-ado).
Set-up: key: below the threshold = too weak to quantify, mostly under pKd 3.1 to 4

Binder | pKd
B1 | below the threshold

The binders below were run against T2, MPP2, Q14168 (assay: holdup assay). Details: plain residues with an end cap or a label only (N-terminal biotin on a linker: ado-ado).
Set-up: key: below the threshold = too weak to quantify, mostly under pKd 3.1 to 4

Binder | pKd
B1 | below the threshold
B2 | below the threshold

These binders were tested against T3, GRIP1_3, Q9Y3R0 (assay: holdup assay). Details: plain residues with an end cap or a label only (N-terminal biotin on a linker: ado-ado).
Set-up: key: below the threshold = too weak to quantify, mostly under pKd 3.1 to 4

Binder | pKd
B1 | below the threshold
B2 | below the threshold

Each binder was assayed against GRID2IP_2, A4D2P6 (assay: holdup assay). Details: plain residues with an end cap or a label only (N-terminal biotin on a linker: ado-ado).
Set-up: key: below the threshold = too weak to quantify, mostly under pKd 3.1 to 4

Chain of GRID2IP_2, A4D2P6 (A4D2P6 272-370): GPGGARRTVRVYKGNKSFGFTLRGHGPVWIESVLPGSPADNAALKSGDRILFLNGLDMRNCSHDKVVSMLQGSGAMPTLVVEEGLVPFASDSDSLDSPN

Binder | pKd
B1 | below the threshold
B2 | below the threshold

What follows are binders tested against FRMPD3, Q5JV73 (assay: holdup assay). Details: plain residues with an end cap or a label only (N-terminal biotin on a linker: ado-ado).
Set-up: key: below the threshold = too weak to quantify, mostly under pKd 3.1 to 4

Chain of FRMPD3, Q5JV73 (Q5JV73 12-100): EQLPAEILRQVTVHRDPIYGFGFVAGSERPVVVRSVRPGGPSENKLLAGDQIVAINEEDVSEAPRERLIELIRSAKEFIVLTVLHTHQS

Binder | pKd
B1 | below the threshold
B2 | below the threshold

Each binder was assayed against T4, DLG3_2, Q92796 (assay: holdup assay). Details: plain residues with an end cap or a label only (N-terminal biotin on a linker: ado-ado).
Set-up: key: below the threshold = too weak to quantify, mostly under pKd 3.1 to 4

Binder | pKd
B1 | below the threshold
B2 | 4.09

What follows are binders tested against PDLIM1, O00151 (assay: holdup assay). Details: plain residues with an end cap or a label only (N-terminal biotin on a linker: ado-ado).
Set-up: key: below the threshold = too weak to quantify, mostly under pKd 3.1 to 4

Chain of PDLIM1, O00151 (O00151 1-87): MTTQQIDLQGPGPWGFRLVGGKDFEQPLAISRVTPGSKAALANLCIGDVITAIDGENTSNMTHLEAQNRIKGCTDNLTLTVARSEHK

Binder | pKd
B1 | 5.47
B2 | below the threshold

The binders below were run against GRIP2_5, Q9C0E4 (assay: holdup assay). Details: plain residues with an end cap or a label only (N-terminal biotin on a linker: ado-ado).
Set-up: key: below the threshold = too weak to quantify, mostly under pKd 3.1 to 4

Chain of GRIP2_5, Q9C0E4 (Q9C0E4 544-642): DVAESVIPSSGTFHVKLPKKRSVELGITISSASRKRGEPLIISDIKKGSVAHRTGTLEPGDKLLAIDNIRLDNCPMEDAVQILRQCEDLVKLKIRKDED

Binder | pKd
B1 | below the threshold
B2 | below the threshold

Each binder was assayed against T5, GRIP1_5, Q9Y3R0 (assay: holdup assay). Details: plain residues with an end cap or a label only (N-terminal biotin on a linker: ado-ado).
Set-up: key: below the threshold = too weak to quantify, mostly under pKd 3.1 to 4

Binder | pKd
B1 | below the threshold
B2 | below the threshold

The binders below were run against T6, RHPN1, Q8TCX5 (assay: holdup assay). Details: plain residues with an end cap or a label only (N-terminal biotin on a linker: ado-ado).
Set-up: key: below the threshold = too weak to quantify, mostly under pKd 3.1 to 4

Binder | pKd
B1 | below the threshold
B2 | below the threshold

These binders were tested against T7, LNX2_2, Q8N448 (assay: holdup assay). Details: plain residues with an end cap or a label only (N-terminal biotin on a linker: ado-ado).
Set-up: key: below the threshold = too weak to quantify, mostly under pKd 3.1 to 4

Binder | pKd
B1 | below the threshold
B2 | below the threshold

What follows are binders tested against PICK1, Q9NRD5 (assay: holdup assay). Details: plain residues with an end cap or a label only (N-terminal biotin on a linker: ado-ado).
Set-up: key: below the threshold = too weak to quantify, mostly under pKd 3.1 to 4

Chain of PICK1, Q9NRD5 (Q9NRD5 17-115): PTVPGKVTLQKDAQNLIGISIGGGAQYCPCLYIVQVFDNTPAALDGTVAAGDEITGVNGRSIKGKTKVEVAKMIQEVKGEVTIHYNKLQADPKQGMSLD

Binder | pKd
B1 | below the threshold
B2 | below the threshold

What follows are binders tested against DLG4_1, P78352 (assay: holdup assay). Details: plain residues with an end cap or a label only (N-terminal biotin on a linker: ado-ado).
Set-up: key: below the threshold = too weak to quantify, mostly under pKd 3.1 to 4

Chain of DLG4_1, P78352 (P78352 62-152): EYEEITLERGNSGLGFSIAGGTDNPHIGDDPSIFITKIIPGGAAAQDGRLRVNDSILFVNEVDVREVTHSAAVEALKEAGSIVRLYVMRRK

Binder | pKd
B1 | below the threshold
B2 | below the threshold

Each binder was assayed against DLG4_2, P78352 (assay: holdup assay). Details: plain residues with an end cap or a label only (N-terminal biotin on a linker: ado-ado).
Set-up: key: below the threshold = too weak to quantify, mostly under pKd 3.1 to 4

Chain of DLG4_2, P78352 (P78352 155-259): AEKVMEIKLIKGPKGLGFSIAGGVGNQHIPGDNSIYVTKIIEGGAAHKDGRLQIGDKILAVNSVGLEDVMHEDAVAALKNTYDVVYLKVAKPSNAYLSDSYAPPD

Binder | pKd
B1 | below the threshold
B2 | below the threshold

These binders were tested against NOS1, P29475 (assay: holdup assay). Details: plain residues with an end cap or a label only (N-terminal biotin on a linker: ado-ado).
Set-up: key: below the threshold = too weak to quantify, mostly under pKd 3.1 to 4

Chain of NOS1, P29475 (P29475 9-101): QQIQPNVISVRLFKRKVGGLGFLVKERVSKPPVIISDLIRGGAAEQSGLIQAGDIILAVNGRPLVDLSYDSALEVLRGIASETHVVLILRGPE

Binder | pKd
B1 | below the threshold
B2 | below the threshold

What follows are binders tested against T8, NHERF3_1, Q5T2W1 (assay: holdup assay). Details: plain residues with an end cap or a label only (N-terminal biotin on a linker: ado-ado).
Set-up: key: below the threshold = too weak to quantify, mostly under pKd 3.1 to 4

Binder | pKd
B1 | below the threshold

What follows are binders tested against Inadl_8, Q8NI35 (assay: holdup assay). Details: plain residues with an end cap or a label only (N-terminal biotin on a linker: ado-ado).
Set-up: key: below the threshold = too weak to quantify, mostly under pKd 3.1 to 4

Chain of Inadl_8, Q8NI35 (Q8NI35 1425-1530): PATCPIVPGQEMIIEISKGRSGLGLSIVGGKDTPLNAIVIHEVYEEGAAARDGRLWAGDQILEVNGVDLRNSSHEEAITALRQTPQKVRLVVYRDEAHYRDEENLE

Binder | pKd
B1 | below the threshold
B2 | below the threshold

What follows are binders tested against T9, APBA2_1, Q99767 (assay: holdup assay). Details: plain residues with an end cap or a label only (N-terminal biotin on a linker: ado-ado).
Set-up: key: below the threshold = too weak to quantify, mostly under pKd 3.1 to 4

Binder | pKd
B1 | below the threshold
B2 | below the threshold

The binders below were run against MAGI1_1, Q96QZ7 (assay: holdup assay). Details: plain residues with an end cap or a label only (N-terminal biotin on a linker: ado-ado).
Set-up: key: below the threshold = too weak to quantify, mostly under pKd 3.1 to 4

Chain of MAGI1_1, Q96QZ7 (Q96QZ7 1-106): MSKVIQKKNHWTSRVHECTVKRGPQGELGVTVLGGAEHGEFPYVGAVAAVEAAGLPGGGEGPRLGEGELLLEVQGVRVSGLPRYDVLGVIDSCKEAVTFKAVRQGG

Binder | pKd
B1 | below the threshold
B2 | below the threshold

These binders were tested against T10, SYNJ2BP, P57105 (assay: holdup assay). Details: plain residues with an end cap or a label only (N-terminal biotin on a linker: ado-ado).
Set-up: key: below the threshold = too weak to quantify, mostly under pKd 3.1 to 4

Binder | pKd
B2 | below the threshold

Each binder was assayed against T11, APBA1_2, Q02410 (assay: holdup assay). Details: plain residues with an end cap or a label only (N-terminal biotin on a linker: ado-ado).
Set-up: key: below the threshold = too weak to quantify, mostly under pKd 3.1 to 4

Binder | pKd
B1 | below the threshold
B2 | below the threshold

What follows are binders tested against GRIP2_4, Q9C0E4 (assay: holdup assay). Details: plain residues with an end cap or a label only (N-terminal biotin on a linker: ado-ado).
Set-up: key: below the threshold = too weak to quantify, mostly under pKd 3.1 to 4

Chain of GRIP2_4, Q9C0E4 (Q9C0E4 446-548): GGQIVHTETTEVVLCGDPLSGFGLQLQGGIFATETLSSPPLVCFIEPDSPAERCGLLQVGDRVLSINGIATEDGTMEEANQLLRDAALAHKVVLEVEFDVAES

Binder | pKd
B1 | below the threshold
B2 | below the threshold

The binders below were run against T12, NHERF3_3, Q5T2W1 (assay: holdup assay). Details: plain residues with an end cap or a label only (N-terminal biotin on a linker: ado-ado).
Set-up: key: below the threshold = too weak to quantify, mostly under pKd 3.1 to 4

Binder | pKd
B1 | below the threshold
B2 | below the threshold

Each binder was assayed against HTRA1, Q92743 (assay: holdup assay). Details: plain residues with an end cap or a label only (N-terminal biotin on a linker: ado-ado).
Set-up: key: below the threshold = too weak to quantify, mostly under pKd 3.1 to 4

Chain of HTRA1, Q92743 (Q92743 360-477): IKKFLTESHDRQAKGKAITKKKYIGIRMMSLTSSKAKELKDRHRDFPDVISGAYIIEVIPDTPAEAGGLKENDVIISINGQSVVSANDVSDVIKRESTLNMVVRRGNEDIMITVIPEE

Binder | pKd
B1 | below the threshold
B2 | below the threshold
